The text below walks through data of patent publication US5962246A.

As usually defined, the Km is the substrate concentration at which the rate is half of its maximum.

Substrate in the data set: O=c1ccn([C@H]2C[C@H](O)[C@@H](COP(=O)(O)OP(=O)(O)OP(=O)(O)O)O2)c(=O)[nH]1
As to the kind of experiment: purified protein, by the assay type. Particulars: other: substrate dUTP, 20 mM Tris-HCl pH 7.5, 37° C., purified recombinant DUT-N.

B1: recombinant human dUTPase nuclear isoform DUT-N (Seq. ID No. 2), expressed in baculovirus/Sf21 insect cells (Homo sapiens) (protein)
chain: MPCSEETPAISPSKRARPAEVGGMQLRFARLSEHATAPTRGSARAAGYDLYSAYDYTIPPMEKAVVKTDIQIALPSGCYGRVAPRSGLAAKHFIDVGAGVIDEDYRGNVGVVLFNFGKEKFEVKKGDRIAQLICERIFYPEIEEVQALDDTERGSGGFGSTGKN
For B1, the Km amounted to 2.5 µM.
